Assay results from patent US9526791B2, “Weakly acidic pH-responsive peptide and liposome containing same” (Taiho Pharmaceutical Co., Ltd., priority 2012, dated 2016).
Read-outs that look alike come from different tables or passages of the source.

What was measured:
[1] = type: physicochemical; settings: for Calcein leakage rate (%): calcein-encapsulated liposome, 37° C., 10 minutes; for Leakage of calcein (in words): pH 6.5 (pH changed from 7.4 to 6.5)
Procedure: • (1) After a peptide-containing lipid membrane was prepared as in Example 4, a calcein (Mw: 622.55) 30-mM solution was added, and calcein-encapsulated liposome 1 was prepared as in Example 4. Unencapsulated calcein was removed by gel filtration (Sephadex G50).
To measure the leakage of the encapsulated calcein from the liposomes, the liposomes were diluted and suspended in buffers having different pHs, and then incubated at 37° C. for 10 minutes. The fluorescence (λex: 488 nm, λem: 517 nm) of the leaked calcein was measured by a plate reader (Infinite M200, produced by Tecan). The fluorescence of the leaked calcein when the liposomes were mixed with 1% Triton-X100 was regarded as complete leakage. The leakage rate was calculated by the following formula. […] Leakage rate(%)=(Fsample−FpH 7.4)/(Ftriton−FpH 7.4)×100
Fsample Fluorescence of calcein leaked from the liposomes at each pH
FpH 7.4: Fluorescence of calcein leaked from the liposomes at a pH of 7.4
Ftriton: Fluorescence of calcein when the liposomes were mixed with 1% Triton-X100.
Calcein was encapsulated in liposome 1 obtained in Example 4, and liposomes 2 and 3 obtained in Example 5, and pH responsiveness was examined as in Test Example 1.
The calcein leakage rate of the calcein-encapsulated liposomes obtained in Examples 4, 6, and 7, and Comparative Examples 4 to 6 at a pH of 7.4 and a pH of 6.5 was calculated as in Test Example 1.

[2] = Observation of liposomes into which comparative compound 3 was introduced (aggregation); type: physicochemical; settings: pH 6.5 or less
Procedure: Comparative liposome 3 into which comparative compound 3 obtained in Comparative Example 3 had been introduced was produced according to the method described in Example 4, and calcein-encapsulated comparative liposome 3 was prepared by the same production method as in Test Example 1.
Thus, the pH-responsiveness was insufficient.

[3] = CD spectra of peptide alone or peptide-introduced liposome under different pH conditions; type: physicochemical; settings: PBS (−), peptide concentration 20 μM
Procedure: Peptide compound 1 obtained in Example 1 alone and a peptide-introduced liposome obtained according to Example 4 (each having a peptide concentration of 20 μM) were suspended in PBS (−) with different pHs, and CD (circular dichroism) spectra were recorded on a J-720WI spectropolarimeter (produced by JASCO Corporation).
The “α-helix” represents an α-helix structure, and the “random coil structure” represents a state in which a clear secondary structure is not formed.

Sequence | Calcein leakage rate (%) ([1]; pH 6.5) | Calcein leakage rate (%) ([1]; pH 7.4) | Leakage of calcein (in words) [1] | Calcein fluorescence on attempted encapsulation (liposome stability) ([1]; pH 7.4) | Aggregation of liposomes [2] | Secondary structure from CD spectrum ([3]; as the pH was reduced) | Secondary structure from CD spectrum ([3]; pH 7.4)
EGEGLALLAHALLAHAALAHAALA [Peptide compound 3] | 65 | 0 |  |  |  |  | 
GHHGLALLHALHLAAAALHAAALA [Peptide compound 2] | 90 | 0 |  |  |  |  | 
HGHGGGGGGGGGAHALLAHAALAH [compound 2] | 30 | 0 | remarkably reduced |  |  |  | 
HGHGLALLAHALLAHAAAAL [compound 3] |  |  |  | fluorescence intensity at the same level as that when Triton treatment was performed | remarkably aggregated |  | 
HGHGLALLAHALLAHAALAHAALA [Peptide compound 1] | 100 | 0 |  |  |  | sequentially converted into a random coil structure | α-helix
HHGGLLLLHHHAAAAALLLAAAAA [compound 1] | 30 | 0 | remarkably reduced |  |  |  | 
